Assay results taken from US20110002929A1 (Ablynx, published 2011).
Numbering of substitutions follows the chain as printed.

B1: RANKL1 (VHH)
VHH: EVQLVESGGGLVQAGGSLRLSCAVSGRTFSSSTMAWFRQPPGGERDFVASISTSGTRTLYADSVKGRFTISRDNAKSTGYLQMNSLKPEDTAVYFCAAVNRRGWEFWRLASGYDYWGLGAQVTVSS
notes: not shown: c-myc and His6 tags
B2: RANKL14 (VHH)
VHH: EVQLVESGGGLVQAGGSLRLSCAASGRTSSYYTMSWFRQDPGKEREFVAAVPLSGNTYYADPVRGRFTISRDNAKNTADLQMNSLKPEDTAVYYCAARASGSIYNRGSYAYWGQGTQVTVSS
notes: as for B1
B3: RANKL16 (VHH)
VHH: EVQLVESGGGLVQAGGSLRLSCVASRRTFSSYAMGWFRQVPGKERDFVAAISTGSITIYGDSVKGRFTISRDNAKNTVYLQMNSLKPEDTAVYYCAAGKREPYLRQYTASNPYDYWGQGTQVTVSS
notes: as for B1
B4: RANKL21 (VHH)
VHH: B3 VHH with S30N, M34V, K43E, I56V, G60A, K99N
notes: as for B1
B5: RANKL17 (VHH)
VHH: EVQLVESGGGLVQVGDSLRLSCEASGRSRFSTYVMGWFRQAPGKEREFVAAVSWSSGNAYYIDSAKGRFATSRDTAKNIMYLQMNSLKPEDTAVYTCAAGRGYGLLSEYTQAPRYDYWGQGTQVTVSS
notes: as for B1
B6: RANKL19 (VHH)
VHH: EVQLVESGGGLVQAGDSLRLSCAASGRTVTMGWFRQAPGKEREFVASITGSGSVTNYADSVKGRFTISRDNAKNTVFLQMNSLKPEDTAVYYCAAYLPSPYYSSYYDSTKYEYWGQGTQVTVSS
notes: as for B1
B7: RANKL20 (VHH)
VHH: EVQLVESGGGLVQAGDSLRLSCAASGRTFTMGWFRQAPGTEREFVAAISGSGKITNYADSVKGRFTISRDHAKNTVFLQMDSLKPEDTAVYYCAGYLRSPYYSSFYDSAKYEYWGQGTQVTVSS
notes: as for B1
B8: RANKL22 (VHH)
VHH: EVQLVESGGGLMQTGGSLRLSCAASERTSRNYGMGWFRQAPGKEREFVAAITSAGGTTYYGDFVKGRFTISRDSAKYTVYLQMNSLKPEDTAVYWCAAKLQIGGRWHNLNDYGYRGQGTQVTVSS
notes: also called 7D12; not shown: c-myc and His6 tags
B9: RANKL23 (VHH)
VHH: EVQLVESGGGLVQAGGSLRLSCAASGLTTVYTMAWFRQAPGKEREFVAAITRSGKTTYYADSVKGRFTISRDNAKNTVNLQMNSLKPDDTAVYYCAAKALLGMTNPAGYEYWGQETQVTVSS
notes: also called 9H5; not shown: c-myc and His6 tags
B10: RANKL4 (VHH)
VHH: KVQLVESGGGLVQTGDSLRLSCAASGRAIGSYAMGWFRQAPGKEREFVAVINYRGSSLKYADRVKGRFTISRDNAKNMVYLQMNSLKPDDTAVYYCAAQTSGADFGTTPQRYTYWGQGTQVTVSS
notes: as for B1
B11: RANKL7 (VHH)
VHH: EVQLVESEGGPVQSGGSLRLSCAASGRTFSVSTIAWFRQAPGEGREFVAAIYPSGRNAYVADSVKGRFTISRDNAKKTVYLQMNSLKPEDTAAYYCAAHQPSGSYYSAEAYAYWGQGTQVTVSS
notes: as for B1

These binders were tested against T1, human RANK-L (human, UniProt O14788 140-317, limits assumed) (assay: ELISA (ED50), biotin-hRANK-L on neutravidin).
T1 construct: Soluble protein, used coated, biotinylated or labelled in ELISA, AlphaScreen, FMAT and Biacore; also called hRANK-L; soluble human RANK-L
T1 sequence (looked up): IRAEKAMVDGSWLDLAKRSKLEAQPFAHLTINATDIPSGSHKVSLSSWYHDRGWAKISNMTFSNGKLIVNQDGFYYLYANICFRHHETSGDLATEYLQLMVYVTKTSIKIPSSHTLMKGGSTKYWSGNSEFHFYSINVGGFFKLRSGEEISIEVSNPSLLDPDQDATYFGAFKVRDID
Description: (§1) Therefore 2 μg/ml neutravidin was coated overnight at 4° C. The plates were washed 5 times with 300 μl PBS and then blocked with […] 1% casein/PBS for 2 hours at room temperature. […] After extensive washing with PBS, varying concentrations of Nanobodies starting from 500 nM to 160 pM diluted in 1% casein/PBS were added to the wells and the plates were incubated for 1 hour at room temperature. Bound Nanobodies were detected by subsequent incubations of a primary mouse anti-myc antibody and a secondary anti mouse-HRP conjugate (DAKO, Glostrup, Denmark) and using TMB-H2O2 (Pierce, Rockford, Ill., USA) substrate cocktail. The reaction was stopped with H₂SO₄ and the OD was read at 450 nm.
An EC50 of 619 pM was found for B1 in this work. An EC50 of 574 pM was found for B2 in this work. An EC50 of 953 pM was found for B3 in this work. An EC50 of 861 pM was found for B4 in this work. An EC50 of 453 pM was found for B5 in this work. An EC50 of 506 pM was found for B6 in this work. An EC50 of 306 pM was found for B7 in this work. An EC50 of 379 pM was found for B8 in this work. An EC50 of 679 pM was found for B9 in this work. An EC50 of 380 pM was found for B10 in this work. An EC50 of 376 pM was found for B11 in this work.

What follows are binders tested against T1, human RANK-L (assay: AlphaScreen, biotin-hRANK-L / RANK-huFc beads).
Description: To this mixture, the RANK acceptor beads and the streptavidin donor beads were added and further incubated for 1 hour at room temperature. Fluorescence was measured by reading plates on the EnVision Multilabel Plate Reader (Perkin Elmer) using an excitation wavelength of 680 nm and an emission wavelength of 520 nm.
An IC50 of 739 pM was found for B1 in this work. An IC50 of 1750 pM was found for B2 in this work. An IC50 of 2250 pM was found for B3 in this work. An IC50 of 1580 pM was found for B4 in this work. An IC50 of 737 pM was found for B5 in this work. An IC50 of 2240 pM was found for B6 in this work. An IC50 of 1360 pM was found for B7 in this work. An IC50 of 3020 pM was found for B8 in this work. An IC50 of 3530 pM was found for B9 in this work. An IC50 of 582 pM was found for B10 in this work. An IC50 of 459 pM was found for B11 in this work.

Each binder was assayed against T2, mouse RANK-L (mouse, UniProt O35235 158-316, limits assumed) (assay: ELISA, set-up as for human RANK-L).
T2 construct: also called murine RANK-L
T2 sequence (looked up): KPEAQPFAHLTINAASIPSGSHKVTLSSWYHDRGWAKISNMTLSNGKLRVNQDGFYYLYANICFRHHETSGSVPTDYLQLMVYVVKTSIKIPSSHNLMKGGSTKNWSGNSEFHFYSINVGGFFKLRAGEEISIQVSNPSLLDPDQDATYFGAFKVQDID
Description: as §1
B1: no binding (tested: 500 nM to 160 pM). B2: no binding (tested: 500 nM to 160 pM). B3: no binding (tested: 500 nM to 160 pM). B4: no binding (tested: 500 nM to 160 pM). B5: no binding (tested: 500 nM to 160 pM). B6: no binding (tested: 500 nM to 160 pM). B7: no binding (tested: 500 nM to 160 pM). B8: no binding (tested: 500 nM to 160 pM). B9: no binding (tested: 500 nM to 160 pM). B10: no binding (tested: 500 nM to 160 pM). B11: no binding (tested: 500 nM to 160 pM).
